Read-outs that look alike come from different tables or passages of the source.
Assays:
[1] = target: RBD-Fc (SARS-CoV-2 S protein amino acids 319-541 with human IgG1 Fc) (SARS-CoV-2; human, UniProt P0DTC2 319-541)
[2] = target: T1, COVID-19 S.P. RBD (Cat. #40592-V08B, SB) (SARS-CoV-2, UniProt P0DTC2 319-541)
[3] = target: SARS-CoV-2 S protein (wildtype) (SARS-CoV-2, UniProt P0DTC2 14-1273); assay: cell-based or functional assay
[4] = target: T1, COVID-19 S.P. RBD (Cat. #40592-V08B, SB); remark: listed apart in the source

| Binder | Kd [2] [nM] | other results |
| --- | --- | --- |
| Fc tagged nanobody VHH60 (Fc fusion) EVQLVESGGGLVQPGGSLRLSCAASGRTFRVNLMGWFRQAPGKGRELVASINGFDDITYYPDSVEGRFTISRDNAKRMVYLQMNSLRAEDTAVYYCAAYDSDYDGRLFNYWGQGTQVTVSSGSGGGGSGGGGS | 2.56 | EC50 (read off the curve) [1]: ~0.4 nM; IC50, authentic SARS-CoV-2 neutralization on Vero-E6 cells (viral RNA by RT-PCR) [3]: 1.53 nM; IC50, pseudovirus neutralization (luciferase activity in Caco-2 cells) [3]: 7.63 nM |
| Fc tagged nanobody VHH34 (Fc fusion) EVQLVESGGGLVQPGGSLRLSCAASGFIYSFNIMGWFRQAPGKGRELVASINWFSDITYYPDSVEGRFTISRDNAKRMVYLQMNSLRAEDTAVYYCAAYLLRGDDRYYATYSYWGQGTQVTVSSGSGGGGSGGGGS | 2.79 |  |
| Fc tagged nanobody VHH82 (Fc fusion) EVQLVESGGGLVQPGGSLRLSCAASGFIYSFNIMGWFRQAPGKGRELVASISSYDDITYYPDSVEGRFTISRDNAKRMVYLQMNSLRAEDTAVYYCAAYLLRGDDRYYATYSYWGQGTQVTVSSGSGGGGSGGGGS | 2.29 |  |
| Fc tagged nanobody VHH43 (Fc fusion) EVQLVESGGGLVQPGGSLRLSCAASGFISDADIMGWFRQAPGKGRELVASINSYDSITYYPDSVEGRFTISRDNAKRMVYLQMNSLRAEDTAVYYCAVRVHSRDFSYWGQGTQVTVSSGSGGGGSGGGGS | 1.44 |  |
| Fc tagged nanobody VHH79 (Fc fusion) EVQLVESGGGLVQPGGSLRLSCAASGFTSRNYFMGWFRQAPGKGRELVATINSLSSITYYPDSVEGRFTISRDNAKRMVYLQMNSLRAEDTAVYYCAVYTPTTGPGEGSYTPWHDYWGQGTQVTVSSGSGGGGSGGGGS | 3.44 |  |
| Fc tagged nanobody VHH80 (Fc fusion) EVQLVESGGGLVQPGGSLRLSCAASGFISNFNLMGWFRQAPGKGRELVATINSFDDITYYPDSVEGRFTISRDNAKRMVYLQMNSLRAEDTAVYYCAAEVRSSLDYALWTSRRSAFSYWGQGTQVTVSSGSGGGGSGGGGS | 4.27 |  |
| Fc tagged nanobody VHH35 (Fc fusion) EVQLVESGGGLVQPGGSLRLSCAASGSIYSFNFMGWFRQAPGKGRELVATINSFDDITYYPDSVEGRFTISRDNAKRMVYLQMNSLRAEDTAVYYCAVLGERTGISYGSAFDYWGQGTQVTVSSGSGGGGSGGGGS |  | Kd [4]: 0.535 nM |

Reference: patent publication US20240158477A1 (BIODURO JIANGSU, published 2024)
